# Source: patent US20020032322A1
# Biological target: TWIK-1 (human)
# Experiment: cell-based or functional assay
row,Substance,"inhibition of TWIK-1 K+ currents (voltage clamp, Xenopus oocytes) [% inhibition]"
1,charybdotoxine (from UniProt P13487 23-59) (peptide),< 10
2,dedrotoxine (peptide),< 10
3,apamin (from UniProt P01500 28-45) (peptide),< 10
